Test results published in US20230312743A1 (MIROBIO, published 2023).

Columns and labels:
[1] = target: T1, monomeric soluble human PD-1 extracellular domain (human, UniProt Q15116 25-170); experiment: SPR (Biacore 8K), 37 C, antibody captured via anti-human IgG, soluble PD-1 ECD as analyte, single cycle kinetics
T1 construct: extracellular domain; also called recombinant human PD-1 extracellular domain
Procedure: (§1) Antibody variants were produced consisting of all the potential combinations of humanized VH and VL domains. […] The binding affinity and kinetics of the humanized antibody variants to human or cynomolgus PD-1 were determined by surface plasmon resonance (SPR) using the Biacore 8 K (Cytiva). Human antibody capture kit (Cytiva) was used to coat a Series S CM5 Sensor Chip (Cytiva) with polyclonal anti-human IgG. Anti-PD-1 antibody was then captured onto the biosensor surface and an isotype control antibody captured in the reference channel. Various concentrations of monomeric soluble human PD-1 extracellular domain or soluble cynomolgus macaque PD-1 extracellular domain were then injected over the immobilized antibodies in the buffer 10 mM Hepes, 150 mM NaCl, 0.005% v/v Surfactant P20, pH 7.4 (HBS-P) at 37° C., in a single cycle kinetics analysis. Association and dissociation rates were fitted using BiaEvaluation Software (Cytiva) after reference and blank subtractions, and dissociation constants were calculated.

[2] = target: T2, soluble cynomolgus macaque PD-1 extracellular domain (cynomolgus macaque, UniProt B0LAJ3 25-170); experiment: as above
T2 construct: also called Cyno PD-1; cynomolgus PD-1
T2 sequence (B0LAJ3 entry or part of it limits assumed): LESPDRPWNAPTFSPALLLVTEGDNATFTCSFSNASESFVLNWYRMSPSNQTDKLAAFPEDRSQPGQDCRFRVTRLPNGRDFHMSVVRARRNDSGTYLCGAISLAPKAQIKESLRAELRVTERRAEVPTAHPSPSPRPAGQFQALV
Procedure: as §1

T1 sequence (Q15116 25-170): as the sequence (B0LAJ3 entry or part of it limits assumed) above, with E2D, A10P, L19V, A35T, R75Q, A144T counted along it

Kd [1] [nM] | Kd [2] [nM] | Binder
53.7 | 318 | Parental (Clone 19 VH and VL) (antibody, V domains shown, The antibodies were captured through anti-human IgG and the variants were made on human IgG1 kappa, so it is probably a chimeric human IgG1 kappa) VH: QVQLQQSGAELVKPGASVKMSCKAFGYTFTTYPIEWMKQNHGKSLEWIGNFHPYNDDTKYNEKFKGKAKLTVEKSSTTVYLELSRLTSDDSAVYYCARENYGSHGGFVYWGQGTLVTVSG VL: ENVLTQSPAIMSASPGEKVTMTCRASSSVISSYLHWYQQKSGASPKLWIYSTSNLASGVPDRFSGSGSGTSYSLTISSVEAEDAATYYCQQYNSYPLTFGAGTKLEIK
44.8 | 251 | humCL19v9 (antibody, human IgG1, V domains shown, hu-VH3 + hu-VL1; human IgG1 kappa isotype) VH: QVQLVQSGSELKKPGASVKVSCKAFGYTFTTYPIEWMRQAPGQGLEWIGNFHPYNDDTKYNEGFTGRFVLSVDKSSTTVYLQISSLKAEDTAVYYCARENYGSHGGFVYWGQGTLVTVSS VL: ENQLTQSPSSLSASVGDRVTITCRASSSVISSYLHWYQQKPGKAPKLLIYSTSNLASGVPSRFSGSGSGTDYTLTISSLQPEDFATYYCQQYNSYPLTFGGGTKLEIK
160 |  | humCL19v13 (antibody, human IgG1, V domains shown, hu-VH4 + hu-VL1; human IgG1 kappa isotype) VH: QVQLVQSGSELKKPGASVKVSCKAFGYTFTTYPIEWVRQAPGQGLEWMGNFHPYNDDTKYNEGFTGRFVFSVDKSVTTVYLQISSLKAEDTAVYYCARENYGSHGGFVYWGQGTLVTVSS VL: ENQLTQSPSSLSASVGDRVTITCRASSSVISSYLHWYQQKPGKAPKLLIYSTSNLASGVPSRFSGSGSGTDYTLTISSLQPEDFATYYCQQYNSYPLTFGGGTKLEIK
80200 |  | humCL19v14 (antibody, human IgG1, V domains shown, hu-VH4 + hu-VL2; human IgG1 kappa isotype) VH: QVQLVQSGSELKKPGASVKVSCKAFGYTFTTYPIEWVRQAPGQGLEWMGNFHPYNDDTKYNEGFTGRFVFSVDKSVTTVYLQISSLKAEDTAVYYCARENYGSHGGFVYWGQGTLVTVSS VL: ENQLTQSPSSLSASVGDRVTITCRASSSVISSYLHWYQQKPGKAPKLLIYSTSNLASGVPSRFSGSGSGTDYTLTISSLQPEDFATYYCQQYRGYPLTFGGGTKLEIK
670 |  | humCL19v10 (antibody, human IgG1, V domains shown, hu-VH3 + hu-VL2; human IgG1 kappa isotype) VH: QVQLVQSGSELKKPGASVKVSCKAFGYTFTTYPIEWMRQAPGQGLEWIGNFHPYNDDTKYNEGFTGRFVLSVDKSSTTVYLQISSLKAEDTAVYYCARENYGSHGGFVYWGQGTLVTVSS VL: ENQLTQSPSSLSASVGDRVTITCRASSSVISSYLHWYQQKPGKAPKLLIYSTSNLASGVPSRFSGSGSGTDYTLTISSLQPEDFATYYCQQYRGYPLTFGGGTKLEIK
37.3 | 236 | humCL19v3 (antibody, human IgG1, V domains shown, hu-VH1 + hu-VL3; human IgG1 kappa isotype) VH: QVQLVQSGAEVKKPGASVKVSCKAFGYTFTTYPIEWMRQAPGKGLEWIGNFHPYNDDTKYNEKFQGRVTLTVDKSSTTVYMELSSLRSEDTAVYYCARENYGSHGGFVYWGQGTLVTVSS VL: ENVLTQSPATLSLSPGERATLSCRASSSVISSYLHWYQQKPGQAPRLLIYSTSNLASGIPARFSGSGSGTDYTLTISSLEPEDFAVYYCQQYNSYPLTFGGGTKLEIK
52.5 | 249 | humCL19v11 (antibody, human IgG1, V domains shown, hu-VH3 + hu-VL3; human IgG1 kappa isotype) VH: QVQLVQSGSELKKPGASVKVSCKAFGYTFTTYPIEWMRQAPGQGLEWIGNFHPYNDDTKYNEGFTGRFVLSVDKSSTTVYLQISSLKAEDTAVYYCARENYGSHGGFVYWGQGTLVTVSS VL: ENVLTQSPATLSLSPGERATLSCRASSSVISSYLHWYQQKPGQAPRLLIYSTSNLASGIPARFSGSGSGTDYTLTISSLEPEDFAVYYCQQYNSYPLTFGGGTKLEIK
2000 | 15200 | humCL19v6 (antibody, human IgG1, V domains shown, hu-VH2 + hu-VL2; human IgG1 kappa isotype) VH: QVQLVQSGAEVKKPGASVKVSCKAFGYTFTTYPIEWVRQAPGKGLEWMGNFHPYNDDTKYNEKFQGRVTMTVDKSTTTVYMELSSLRSEDTAVYYCARENYGSHGGFVYWGQGTLVTVSS VL: ENQLTQSPSSLSASVGDRVTITCRASSSVISSYLHWYQQKPGKAPKLLIYSTSNLASGVPSRFSGSGSGTDYTLTISSLQPEDFATYYCQQYRGYPLTFGGGTKLEIK
32 | 199 | humCL19v4 (antibody, human IgG1, V domains shown, hu-VH1 + hu-VL4; human IgG1 kappa isotype) VH: QVQLVQSGAEVKKPGASVKVSCKAFGYTFTTYPIEWMRQAPGKGLEWIGNFHPYNDDTKYNEKFQGRVTLTVDKSSTTVYMELSSLRSEDTAVYYCARENYGSHGGFVYWGQGTLVTVSS VL: ENVLTQSPATLSLSPGERATLSCRASSSVISSYLHWYQQKPGQAPRLLIYSTSNRATGIPARFSGSGSGTDYTLTISSLEPEDFAVYYCQQYNSYPLTFGGGTKLEIK
58.9 | 369 | humCL19v8 (antibody, human IgG1, V domains shown, hu-VH2 + hu-VL4; human IgG1 kappa isotype) VH: QVQLVQSGAEVKKPGASVKVSCKAFGYTFTTYPIEWVRQAPGKGLEWMGNFHPYNDDTKYNEKFQGRVTMTVDKSTTTVYMELSSLRSEDTAVYYCARENYGSHGGFVYWGQGTLVTVSS VL: ENVLTQSPATLSLSPGERATLSCRASSSVISSYLHWYQQKPGQAPRLLIYSTSNRATGIPARFSGSGSGTDYTLTISSLEPEDFAVYYCQQYNSYPLTFGGGTKLEIK
57.6 | 440 | humCL19v5 (antibody, human IgG1, V domains shown, hu-VH2 + hu-VL1; human IgG1 kappa isotype) VH: QVQLVQSGAEVKKPGASVKVSCKAFGYTFTTYPIEWVRQAPGKGLEWMGNFHPYNDDTKYNEKFQGRVTMTVDKSTTTVYMELSSLRSEDTAVYYCARENYGSHGGFVYWGQGTLVTVSS VL: ENQLTQSPSSLSASVGDRVTITCRASSSVISSYLHWYQQKPGKAPKLLIYSTSNLASGVPSRFSGSGSGTDYTLTISSLQPEDFATYYCQQYNSYPLTFGGGTKLEIK
64.5 | 565 | humCL19v7 (antibody, human IgG1, V domains shown, hu-VH2 + hu-VL3; human IgG1 kappa isotype) VH: QVQLVQSGAEVKKPGASVKVSCKAFGYTFTTYPIEWVRQAPGKGLEWMGNFHPYNDDTKYNEKFQGRVTMTVDKSTTTVYMELSSLRSEDTAVYYCARENYGSHGGFVYWGQGTLVTVSS VL: ENVLTQSPATLSLSPGERATLSCRASSSVISSYLHWYQQKPGQAPRLLIYSTSNLASGIPARFSGSGSGTDYTLTISSLEPEDFAVYYCQQYNSYPLTFGGGTKLEIK
161 | 896 | humCL19v16 (antibody, human IgG1, V domains shown, hu-VH4 + hu-VL4; human IgG1 kappa isotype) VH: QVQLVQSGSELKKPGASVKVSCKAFGYTFTTYPIEWVRQAPGQGLEWMGNFHPYNDDTKYNEGFTGRFVFSVDKSVTTVYLQISSLKAEDTAVYYCARENYGSHGGFVYWGQGTLVTVSS VL: ENVLTQSPATLSLSPGERATLSCRASSSVISSYLHWYQQKPGQAPRLLIYSTSNRATGIPARFSGSGSGTDYTLTISSLEPEDFAVYYCQQYNSYPLTFGGGTKLEIK
1010 |  | humCL19v2 (antibody, human IgG1, V domains shown, hu-VH1 + hu-VL2; human IgG1 kappa isotype) VH: QVQLVQSGAEVKKPGASVKVSCKAFGYTFTTYPIEWMRQAPGKGLEWIGNFHPYNDDTKYNEKFQGRVTLTVDKSSTTVYMELSSLRSEDTAVYYCARENYGSHGGFVYWGQGTLVTVSS VL: ENQLTQSPSSLSASVGDRVTITCRASSSVISSYLHWYQQKPGKAPKLLIYSTSNLASGVPSRFSGSGSGTDYTLTISSLQPEDFATYYCQQYRGYPLTFGGGTKLEIK
47.5 | 253 | humCL19v12 (antibody, human IgG1, V domains shown, hu-VH3 + hu-VL4; human IgG1 kappa isotype) VH: QVQLVQSGSELKKPGASVKVSCKAFGYTFTTYPIEWMRQAPGQGLEWIGNFHPYNDDTKYNEGFTGRFVLSVDKSSTTVYLQISSLKAEDTAVYYCARENYGSHGGFVYWGQGTLVTVSS VL: ENVLTQSPATLSLSPGERATLSCRASSSVISSYLHWYQQKPGQAPRLLIYSTSNRATGIPARFSGSGSGTDYTLTISSLEPEDFAVYYCQQYNSYPLTFGGGTKLEIK
